Measurements: US20230392126A1, “TISSUE ORGANOIDS” (priority 2016, published 2023)

Assays:
[1] = Extinction and ethanol-induced reinstatement of CPP; type: in vivo, mouse; conditions: 1 g/kg ethanol i.p., specificity control
Procedure: Extinction and reinstatement of CPP: Following CPP acquisition, mice underwent extinction, in which the procedure was identical to that in the test day. In each extinction day, mice were allowed to explore the entire chambers for 20 min and time spent in each area was recorded. Extinction was performed until the CPP decreased to a level that was not different from that of the pretest in consecutive two days. On the following day of the last extinction, mice underwent reinstatement procedures, in which mice that were trained for cocaine CPP received an i.p. injection of 15 mg/kg cocaine, and mice that were trained for ethanol CPP received an i.p. injection of 1 g/kg ethanol. Immediate after injection, mice were allowed to explore the entire chambers for 20 min and time spent in each area was recorded.
Specific methods: One group of GhBChE and one group of GWT mice (n=9 in each group) were trained for cocaine CPP 7 days after engraftment (FIG. 18A). Mice underwent pretest on Day 1, four days of cocaine conditioning day 2 to Day 5, and CPP test on Day 6. One group of GhBChE and one group of GWT mice (n=8 in each group) were trained for ethanol CPP 7 days after engraftment (FIG. 18B). Mice underwent pretest on Day 1, four ethanol conditioning day 2 to Day 5, and CPP test on Day 6. […]

[2] = Acquisition of cocaine conditioned place preference (CPP); type: in vivo, mouse; conditions: 10 mg/kg cocaine i.p., grafted cocaine-naïve mice
Procedure: CPP apparatus: The CPP apparatus (FIG. 17; Med Associates, E. Fairfield, VT, USA) consisted of two larger chambers (16.8×12.7×12.7 cm), which were separated by a smaller chamber (7.2×12.7×12.7 cm) as previously described (Yan et al., 2013). […] Time spent in each chamber was measure via photobeam breaks and recorded. CPP was determined on testing days via time spent in the drug-paired side minus time spent in the saline-paired side.
Acquisition of CPP: A biased CPP procedure was used similar to that from a previous study (Yan et al., 2013). Acquisition of CPP consisted of three sequential procedures—pretest, conditioning, and test. […] On Day 6 (test day) mice were allowed to explore the entire chambers for 20 min and time spent in each area was recorded. […]
Next, protection against development of cocaine-seeking was assessed using the conditioned place preference (CPP) paradigm, which is thought to model reward learning and seeking because experimental animals approach and remain in contact with cues that have been paired with the effects of the reward. hBChE-expressing cells were grafted to cocaine-naïve mice with GWT animals as controls. […] As an additional control, ethanol CPP was measured after 4 days of conditioning in GhBChE and GWT mice.

B1: hBChE: modified human butyrylcholinesterase (E30-6, SEQ ID NO: 41), cocaine hydrolase, expressed from engineered epidermal cells / skin grafts (protein)
chain: MHSKVTIICIRFLFWFLLLCMLIGKSHTEDDIIIATKNGKVRGMNLTVFGGTVTAFLGIPYAQPPLGRLRFKKPQSLTKWSDIWNATKYANSCCQNIDQSFPGFHGSEMWNPNTDLSEDCLYLNVWIPAPKPKNATVLIWIYGGGFQTGTSSLHVYDGKFLARVERVIVVSMNYRVGALGFLALPGNPEAPGNMGLFDQQLALQWVQKNIAAFGGNPKSVTLFGESSGAASVSLHLLSPGSHSLFTRAILQSGSANAPWAVTSLYEARNRTLNLAKLTGCSRENETEIIKCLRNKDPQEILLNEAFVVPYGTALGVNFGPTVDGDFLTDMPDILLELGQFKKTQILVGVNKDEGTWFLVGGAPGFSKDNNSIITRKEFQEGLKIFFPGVSEFGKESILFHYTDWVDDQRPENYREALGDVVGDYNFICPALEFTKKFSEWGNNAFFYYFEHRSSKLPWPEWMGVMHGYEIEFVFGLPLERRDNYTKAEEILSRSIVKRWANFAKYGNPNETQNNSTSWPVFKSTEQKYLTLNTESTRIMTKLRAQQCRFWTSFFPKVLEMTGNIDEAEWEWKAGFHRWNNYMMDWKNQFNDYTSKKESCVGL
modifications: Human mutant BChE
Q: For B1, which “ethanol-induced reinstatement of CPP” value [1] is on record?
A: similarly reinstated in both GhBChE and GWT mice

Q: And the “cocaine CPP after 4 days of place conditioning” value [2]?
A: showed no such preference
